Experimental findings from patent US20230348578A1 (BETH ISRAEL DEACONESS MEDICAL CENTER, published 2023) are described below.

This test deals with cis P-tau in cultured neurons stressed by hypoxia. The test is described as follows: cell-based or functional assay.

Where a chain is given by its changes, count along the chain named.

B1: Cis-mAb HT13 (mouse-human chimera, control) (antibody, V domains shown)
VH: QVQLQQPGAELVKPGASVKMSCKASGYTFTSYWIHWVKQRPGQGLEWIGVIDPSDSYTRYNQKFKGKATLTVDTSSSTAYMQLSSLTSEDSAVYYCTTWEVDYWGQGTTLTVSS
VL: DVVMTQTPLSLPVSLGDQASISCRSSQSLVHSDGNTYLHWYLQKPGQSPKLLIYKVSNRFSGVPDRFSGSGSGTDFTLKISRLEAEDLGVYFCSQSTHVPWTFGGGTKLEIK
In the case of B1, the “Cis P-tau elimination” value is 1 relative (HT13 = 1.0).

B2: Cis-mAb HT2 (humanized) (antibody, V domains shown)
VH: QVQLVQSGAEVKKPGASVKMSCKASGYTFTSYWIHWVKQRPGQGLEWIGVIDPSDSYTRYNQKFKGRATLTVDTSASTAYMELSSLRSEDTAVYYCTTWEVDYWGQGTLVTVSS
VL: B1 VL with T7S, S14T, D17Q, Q18P, K50Q, L83V, L88V, L109V
Turning to B2, the “Cis P-tau elimination” value was 1.5 relative (HT13 = 1.0).

B3: Cis-mAb HT1 (humanized) (antibody, V domains shown)
VH: B2 VH with V11L, E82Q, R87T, T91S, L109T
VL: B1 VL with T7S, S14T, D17Q, Q18P, K50Q, L83V, L88V, L109V
As to B3, the “Cis P-tau elimination” value was 1.7 relative (HT13 = 1.0).

B4: Cis-mAb HT3 (humanized) (antibody, V domains shown)
VH: B2 VH with M20V, K38R, A68V
VL: B1 VL with T7S, S14T, D17Q, Q18P, K50Q, L83V, L88V, L109V
In the case of B4, the “Cis P-tau elimination” value is 1.6 relative (HT13 = 1.0).

B5: Cis-mAb HT8 (humanized) (antibody, V domains shown)
VH: B2 VH with M20V, K38R, A68V, L70I, V72R
VL: B1 VL with T7S, S14T, D17Q, Q18P, K50Q, F60D, L83V, L88V, L109V
For the molecule B5, the “Cis P-tau elimination” value is 0.9 relative (HT13 = 1.0).

B6: Cis-mAb HT10 (humanized) (antibody, V domains shown)
VH: B2 VH
VL: B1 VL with T7S, S14T, D17Q, Q18P, K50Q, L83V, L88V, F92Y, L109V
For the molecule B6, the “Cis P-tau elimination” value was 0.9 relative (HT13 = 1.0).

B7: Cis-mAb HT18 (humanized) (antibody, V domains shown)
VH: B2 VH with A16S, M20V, K38R, R40A, I48M, A68V, L70I, V72R, A76M, M81T
VL: DIQMTQSPSTLSASVGDRVTITCRSSQSLVHSDGNTYLHWYQQKPGKAPKLLIYKVSNRFSGVPSRFSGSGSGTEFTLTISSLQPDDFATYYCSQSTHVPWTFGQGTKLEIK
In the case of B7, the “Cis P-tau elimination” value was 0.8 relative (HT13 = 1.0).
